Measured values from patent US20190233498A1 (H LUNDBECK A S, published 2019).
Changes are numbered by the printed parent chain.

T1: human PACAP27 (human, C-terminal leucine is amidated; 125I-labelled in Example 10)
T1 peptide: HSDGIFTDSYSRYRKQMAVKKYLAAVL

T2: human VIP (human)
T2 construct: also called Vasoactive Intestinal Peptide
T2 peptide: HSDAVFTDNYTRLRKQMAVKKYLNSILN

T3: human PACAP38 (human, not fully specified; C-terminal lysine is amidated; N-terminal or C-terminal biotin in the HTRF and PC-12 cell binding assays)
T3 construct: synthetic peptide, bought; also called huPACAP (1-38)
T3 peptide: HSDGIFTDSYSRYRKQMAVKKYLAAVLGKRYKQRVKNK

B1: anti-PACAP antibody Ab19 (antibody, human IgG1, kappa, N297A, V domains shown)
VH: QSVEASGGRLVTPGTPLTLTCTVSGFSLSSATMNWVRQAPGKGLEWIGLIGGNDERYYASWAKGRFTISKTSSTTVDLKMTSPTTEDTATYFCARGGGEFFIWGPGTLVTVSS
VL: AQVLTQTPSSVSAAVGGTVTINCQSSESVYTNDRLSWYQQKPGQPPKLLIYEASKLASGVPPRFSGSGSGTQFTLTISDLECDDAATYYCAGAYSTSIHGFGGGTEVVVKR
notes: full-length rabbit/human chimeric antibody
B2: anti-PACAP antibody Ab16 (antibody, human IgG1, kappa, N297A, V domains shown)
VH: QSVEESGGRLVTPGTPLTLTCTVSGFSLSSAAMSWVRQAPGKGLEWIGIIDDSGNTYYASWAKARFTISKTSSTTVDLKMTSPTTEDTATYFCARGGGEFFIWGPGTLVTVSS
VL: DPVLTQTPSSVSAAVGGTVTINCQSSQSVYNNKWLSWYQQKPGQSPKFLIYQASNLASGVPSRFKGSGSGTQFTLTISDLECDDGATYYCAGGYRGNVCGFGGGTEVVVKR
notes: as for B1
B3: anti-PACAP antibody Ab18 (antibody, human IgG1, kappa, N297A, V domains shown)
VH: B2 VH with M33L, D52K, S53G, G54V, N55M, T56S, A64G, M80V, P105Q
VL: B2 VL with D1A, P2Q, Q27K, K33N, S45P, G85A, R95S, V98I, C99V
notes: as for B1
B4: anti-PACAP antibody Ab17 (antibody, human IgG1, kappa, N297A, V domains shown)
VH: B2 VH with S34N, I50F, D52P, S53Y, G54S, N55S, A64G
VL: AQVLTQTPSSVSAAVGGTVTINCQSSQSVYKNKYLSWYQQKVGQPPKFLIYQASNLASGVPSRFKGSGSGTQFTLTISDLECDDAATYYCAGGYSGNMVDFGGGTEVVVKR
notes: as for B1
B5: anti-PACAP antibody Ab14 (antibody, human IgG1, kappa, N297A, V domains shown)
VH: QSVEASGGRLVTPGTPLTLTCTVSGFSLSSAAMNWVRQAPGKGLEWIGFIEYSKNIVYASWAKGRFTISKVSSTTVDLKMTSPTTEDTATYFCARGGGEFFIWGQGTLVTVSS
VL: AQVLTQTPSSVSAAVGGTVTINCQSSQSVYSNNRLSYYQQKPGQPPKLLIYEASSLAYGVPSRFKGSGSGTQFTLTISDLECDDAATYYCAGAYSNSIYSFGGGTEVVVKR
notes: as for B1
B6: anti-PACAP antibody Ab15 (antibody, human IgG1, kappa, N297A, V domains shown)
VH: QSVEASGGHLVTPGTPLTLTCTVSGFSLSSAAMNWVRQAPGKGLEWIGSVDERQNKYYASWAKGRFTISRTSSTTVNLKMTSPTTEDTATYFCARGGGEFFIWGQGTLVTVSS
VL: B5 VL with Y37W, K47N, Y58S, K65S, S95N, N96T, S97G, S100G
notes: as for B1

Columns and labels:
human PACAP27 [1] = target: T1, human PACAP27; test: SPR, Ab immobilised
Protocol: [The procedure below names another target; the source says it served here with some conditions changed.] (§1) Binding affinities of monoclonal antibodies for human PACAP were estimated using SPR on the PROTEON™ XPR36 (Bio-Rad, Hercules, Calif.). Antibody was immobilized to the surface of general amine coupling (“GLC” or “GLM”) Chips (Bio-Rad, Hercules, Calif.). A dilution series of human PACAP38 (SEQ ID NO: 1241) prepared in 1×PBST Buffer (4.3 mM Na Phosphate, 1.4 mM K Phosphate, 135 mM NaCl, 2.7 mM KCl 0.05% Polysorbate-20) purchased from Teknova (Cat# P1192, Teknova, Hollister, Calif.) and supplemented with 0.25 M arginine (from J.T. BAKER®), 0.2 mg/ml BSA (Jackson Immuno Research Labs, West Grove, Pa.), and 0.005% sodium azide (VWR International, Radnor, Pa.) with the pH adjusted to 7 was used to query the antibodies. Antigen (ranging from 1.23 nM to 100 nM) was typically run sequentially with association times of 2-4 minutes and dissociation times of 3-120 minutes grouped with the PROTEON™ Manager Software (v3.1.0.6 (Bio-Rad, Hercules, Calif.)) and fitted using a 1:1 Langmuir binding model. Surfaces were regenerated between analyte queries using 0.85% Phosphoric Acid.

human VIP = target: T2, human VIP; test: SPR, Ab immobilised
Protocol: [The procedure below names another target; the source says it served here with some conditions changed.] as §1

human PACAP38 [2] = target: T3, human PACAP38; test: SPR, Ab immobilised
Protocol: as §1

human PACAP27 [3] = target: T1, human PACAP27; test: cell-based or functional assay
human PACAP38 [4] = target: T3, human PACAP38; test: cell-based or functional assay
human PACAP38 [5] = target: T3, human PACAP38; test: HTRF binding, biotin-PACAP38
Protocol: In parallel, 10 μl of an antibody dilution series (highest final concentration of 100 nM) were incubated with 10 μl of N-terminal or C-terminal biotinylated PACAP38 (35 nM final) alone, or in combination with either PACAP27 (350 nM final) or VIP (350 nM final), i.e., 10× PACAP27 or 10×VIP, respectively, in a HTRF plate. 20 μl of Eu³⁺ cryptate labeled anti-hu Fc donor and 20 μl of d2-labeled streptavidin acceptor were added to each well and incubated for 1 hour at room temperature. Fluorescence was measured at 620 and 665 nm with a delay of 300 μsec.
EC₅₀ values, i.e. the concentration of an antibody that yields a response halfway between the baseline and the maximum value within a specified time period, were computed for each antibody based upon their binding curves and are shown in Table 1 below. […] A humanized form of antibody Ab1 was produced and is identified by an appended “.H”, i.e., Ab1.H, and it also bound PACAP38 with high affinity.

human PACAP38 [6] = target: T3, human PACAP38; test: cell-based or functional assay
human PACAP38 [7] = target: T3, human PACAP38; test: inhibition of 100 nM biotin-PACAP38 binding to PC-12 cells, TRF
Protocol: To identify antibodies that block PACAP38 binding to PAC1-R-expressing cells, adherent PC-12 cells (ATCC, Manassas, Va.) expressing PAC1-R were used in a Europium-based PAC1-R expressing cells binding assay.
Antibody solutions were incubated with N-terminal biotinylated PACAP38 at 10× the final concentration (100 nM or 30 nM) for 1 hr, then added to PC-12 cells that were plated 24 hrs. prior in black clear bottom 96 well plates (COSTAR™, Corning Incorporated, Corning, N.Y.) and further incubated for 1 hr at room temperature. After three washes, the cells were incubated with 20 μl Europium-labeled streptavidin (PerkinElmer, Waltham, Mass.) for 1 hr at room temperature. Cells were washed three times, then 20 μl DELFIA® Enhancement solution (PerkinElmer, Waltham, Mass.) was added to each well and incubated for 15 minutes with gentle shaking. Plates were read (Time Resolved Fluorescence (“TRF”)) on SPECTRAMAX® (Molecular Devices, Sunnyvale, Calif.) plate reader.
FIGS. 14A-14BB are representative of the inhibition curves obtained by this method (results are shown for Ab1, Ab2, Ab3, Ab4, Ab5, Ab6, Ab7, Ab8, Ab9, Ab10, Ab11, Ab12, Ab13, Ab14, Ab15, Ab16, Ab17, Ab18, Ab19, Ab1.H, Ab10.H, Ab22, Ab23, Ab3.H, Ab4.H, Ab5.H, Ab9.H, and Ab12.H, respectively) wherein the PAC1-R expressing cells were PC-12 cells.

human PACAP38 [8] = target: T3, human PACAP38; test: cell-based or functional assay

Kd (human PACAP27 [1]) | koff (human PACAP27 [1]) | kon (human PACAP27 [1]) | Kd (human VIP) | koff (human VIP) | kon (human VIP) | Kd (human PACAP38 [2]) | koff (human PACAP38 [2]) | kon (human PACAP38 [2]) | IC50, 0.1 nM PACAP27-induced PAC1-R mediated cAMP increase (human PACAP27 [3]) | IC50, 0.1 nM PACAP38-induced PAC1-R mediated cAMP increase (human PACAP38 [4]) | EC50 (human PACAP38 [5]) | IC50, 1 nM PACAP38-induced human VPAC2-R mediated cAMP increase (human PACAP38 [6]) | IC50 (human PACAP38 [7]) | IC50, 5 nM PACAP38-induced human VPAC1-R mediated cAMP increase (human PACAP38 [8]) | Binder
0.31 nM | 0.00013 s⁻¹ | 420000 M⁻¹ s⁻¹ | 1000 nM | 0.28 s⁻¹ | 280000 M⁻¹ s⁻¹ | 0.093 nM | 2.5e-05 s⁻¹ | 270000 M⁻¹ s⁻¹ | 0.0874 nM | 0.101 nM | 0.43 nM | 0.954 nM | 162 nM | 0.827 nM | B1
0.035 nM | 2.9e-05 s⁻¹ | 820000 M⁻¹ s⁻¹ | 260 nM | 0.096 s⁻¹ | 360000 M⁻¹ s⁻¹ | ≤ 0.011 nM | ≤ 1e-05 s⁻¹ | 910000 M⁻¹ s⁻¹ | 0.192 nM | 0.212 nM | 0.68 nM | 1.15 nM | 27.3 nM | 3.53 nM | B2
≤ 0.023 nM | ≤ 1e-05 s⁻¹ | 440000 M⁻¹ s⁻¹ | 400 nM | 0.12 s⁻¹ | 310000 M⁻¹ s⁻¹ | ≤ 0.023 nM | ≤ 1e-05 s⁻¹ | 430000 M⁻¹ s⁻¹ | 0.0916 nM | 0.118 nM | 0.48 nM | 0.285 nM | 30.6 nM | 0.911 nM | B3
≤ 0.027 nM | ≤ 1e-05 s⁻¹ | 370000 M⁻¹ s⁻¹ | 55 nM | 0.017 s⁻¹ | 310000 M⁻¹ s⁻¹ | ≤ 0.02 nM | ≤ 1e-05 s⁻¹ | 500000 M⁻¹ s⁻¹ | 0.0776 nM | 0.0977 nM | 0.46 nM | 0.205 nM | 33.1 nM | 0.78 nM | B4
0.074 nM | 2e-05 s⁻¹ | 270000 M⁻¹ s⁻¹ | 250 nM | 0.067 s⁻¹ | 270000 M⁻¹ s⁻¹ | ≤ 0.031 nM | ≤ 1e-05 s⁻¹ | 320000 M⁻¹ s⁻¹ | 0.0957 nM | 0.154 nM | 0.57 nM | 0.84 nM | 17.9 nM | 2.63 nM | B5
0.17 nM | 7.8e-05 s⁻¹ | 470000 M⁻¹ s⁻¹ | 820 nM | 0.13 s⁻¹ | 160000 M⁻¹ s⁻¹ | 0.05 nM | 2.7e-05 s⁻¹ | 530000 M⁻¹ s⁻¹ | 0.155 nM | 0.162 nM | 0.62 nM | 22.9 nM | 36.7 nM | 3.71 nM | B6
